Measured values taken from the supplement of paper PMC5998384.

Columns and labels:
HeLa Kyoto [1] = assay: solubility in G1/S (NP-40 vs SDS abundance) (log2 ratio); higher = more soluble; conditions: cell cycle stage: G1/S
HeLa Kyoto [2] = assay: solubility change mitosis vs G1/S (difference of NP-40 vs SDS log2 ratios) (log2 ratio difference); higher = more soluble in mitosis
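Wherever solubility change mitosis vs G1/S (difference of NP-40 vs SDS log2 ratios) is given: synchronized HeLa Kyoto cells (double thymidine block for G1/S, nocodazole release for mitosis), protein amounts in NP-40 versus SDS lysates quantified by mass spectrometry, three biological replicates.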
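Wherever solubility in G1/S (NP-40 vs SDS abundance) is given: HeLa Kyoto cells arrested at G1/S by double thymidine block, proteins quantified by TMT10plex mass spectrometry in mild NP-40 versus SDS extracts, three biological replicates.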

Sequence | solubility in G1/S (log2) (HeLa Kyoto [1]) | solubility change mitosis (log2) (HeLa Kyoto [2])
MEPRAAAAGEPEPPAASSSFQARLWKNLQLGVGRSKGGGGGRAGGPERRTADTPSPSPPPPVGTGNAPARGSGAGSRWSGFKKRKQVLDRVFSSSQPNLCCSSPEPLEPGGAGRAEQGSTLRRRIREHLLPAVKGPAAASGAAGGTPPGGRSPDSAPSSSSASSSLSSSPQPPPRGDRARDEGARRQGPGAHLCHQKSSSLPGTACLEQLLEPPPPPAEPARSPAESRAPETGEEHGSSQKIINTAGTSNAEVPLADPGMYQLDITLRRGQSLAARDRGGTSDPYVKFKIGGKEVFRSKIIHKNLNPVWEEKACILVDHLREPLYIKVFDYDFGLQDDFMGSAFLDLTQLELNRPTDVTLTLKDPHYPDHDLGIILLSVILTPKEGESRDVTMLMRKSWKRSSKELSENEVVGSYFSVKSLFWRTCGRPALPVLGFCRAELQNPYCKNVQFQTQSLRLSDLHRKSHLWRGIVSITLIEGRDLKAMDSNGLSDPYVKFRLGHQKYKSKIMPKTLNPQWREQFDFHLYEERGGVIDITAWDKDAGKRDDFIGRCQVDLSALSREQTHKLELQLEEGEGHLVLLVTLTASATVSISDLSVNSLEDQKEREEILKRYSPLRIFHNLKDVGFLQVKVIRAEGLMAADVTGKSDPFCVVELNNDRLLTHTVYKNLNPEWNKVFTFNIKDIHSVLEVTVYDEDRDRSADFLGKVAIPLLSIQNGEQKAYVLKNKQLTGPTKGVIYLEIDVIFNAVKASLRTLIPKEQKYIEEENRLSKQLLLRNFIRMKRCVMVLVNAAYYVNSCFDWDSPPRSLAAFVLFLFVVWNFELYMIPLVLLLLLTWNYFLIISGKDNRQRDTVVEDMLEDEEEEDDKDDKDSEKKGFINKIYAIQEVCVSVQNILDEVASFGERIKNTFNWTVPFLSWLAIVALCVFTAILYCIPLRYIVLVWGINKFTKKLRSPYAIDNNELLDFLSRVPSDVQVVQYQELKPDPSHSPYKRKKNNLG [MCTP1] | 0.0529 | -0.196
MEPRRAAPGVPGWGSREAAGSASAAELVYHLAGALGTELQDLARRFGPEAAAGLVPLVVRALELLEQAAVGPAPDSLQVSAQPAEQELRRLREENERLRRELRAGPQEERALLRQLKEVTDRQRDELRAHNRDLRQRGQETEALQEQLQRLLLVNAELRHKLAAMQTQLRAAQDRERERQQPGEAATPQAKERARGQAGRPGHQHGQEPEWATAGAGAPGNPEDPAEAAQQLGRPSEAGQCRFSREEFEQILQERNELKAKVFLLKEELAYFQRELLTDHRVPGLLLEAMKVAVRKQRKKIKAKMLGTPEEAESSEDEAGPWILLSDDKGDHPPPPESKIQSFFGLWYRGKAESSEDETSSPAPSKLGGEEEAQPQSPAPDPPCSALHEHLCLGASAAPEA [RILP] | 0.551 | 0.11
MEQRRVTDFFARRRPGPPRIAPPKLACRTPSPARPALRAPASATSGSRKRARPPAAPGRDQARPPARRRLRLSVDEVSSPSTPEAPDIPACPSPGQKIKKSTPAAGQPPHLTSAQDQDTISELASCLQRARELGARVRALKASAQDAGESCTPEAEGRPEEPCGEKAPAYQRFHALAQPGLPGLVLPYKYQVLAEMFRSMDTIVGMLHNRSETPTFAKVQRGVQDMMRRRFEECNVGQIKTVYPASYRFRQERSVPTFKDGTRRSDYQLTIEPLLEQEADGAAPQLTASRLLQRRQIFSQKLVEHVKEHHKAFLASLSPAMVVPEDQLTRWHPRFNVDEVPDIEPAALPQPPATEKLTTAQEVLARARNLISPRMEKALSQLALRSAAPSSPGSPRPALPATPPATPPAASPSALKGVSQDLLERIRAKEAQKQLAQMTRCPEQEQRLQRLERLPELARVLRSVFVSERKPALSMEVACARMVGSCCTIMSPGEMEKHLLLLSELLPDWLSLHRIRTDTYVKLDKAADLAHITARLAHQTRAEEGL [CDT1] | 0.0981 | 0.575
MERPSLRALLLGAAGLLLLLLPLSSSSSSDTCGPCEPASCPPLPPLGCLLGETRDACGCCPMCARGEGEPCGGGGAGRGYCAPGMECVKSRKRRKGKAGAAAGGPGVSGVCVCKSRYPVCGSDGTTYPSGCQLRAASQRAESRGEKAITQVSKGTCEQGPSIVTPPKDIWNVTGAQVYLSCEVIGIPTPVLIWNKVKRGHYGVQRTELLPGDRDNLAIQTRGGPEKHEVTGWVLVSPLSKEDAGEYECHASNSQGQASASAKITVVDALHEIPVKKGEGAEL [IGFBP7] | 0.0794 | 0.407
MESETEPEPVTLLVKSPNQRHRDLELSGDRGWSVGHLKAHLSRVYPERPRPEDQRLIYSGKLLLDHQCLRDLLPKQEKRHVLHLVCNVKSPSKMPEINAKVAESTEEPAGSNRGQYPEDSSSDGLRQREVLRNLSSPGWENISRPEAAQQAFQGLGPGFSGYTPYGWLQLSWFQQIYARQYYMQYLAATAASGAFVPPPSAQEIPVVSAPAPAPIHNQFPAENQPANQNAAPQVVVNPGANQNLRMNAQGGPIVEEDDEINRDWLDWTYSAATFSVFLSILYFYSSLSRFLMVMGATVVMYLHHVGWFPFRPRPVQNFPNDGPPPDVVNQDPNNNLQEGTDPETEDPNHLPPDRDVLDGEQTSPSFMSTAWLVFKTFFASLLPEGPPAIAN [HERPUD1] | 0.0523 | -0.0685
MESKGASSCRLLFCLLISATVFRPGLGWYTVNSAYGDTIIIPCRLDVPQNLMFGKWKYEKPDGSPVFIAFRSSTKKSVQYDDVPEYKDRLNLSENYTLSISNARISDEKRFVCMLVTEDNVFEAPTIVKVFKQPSKPEIVSKALFLETEQLKKLGDCISEDSYPDGNITWYRNGKVLHPLEGAVVIIFKKEMDPVTQLYTMTSTLEYKTTKADIQMPFTCSVTYYGPSGQKTIHSEQAVFDIYYPTEQVTIQVLPPKNAIKEGDNITLKCLGNGNPPPEEFLFYLPGQPEGIRSSNTYTLTDVRRNATGDYKCSLIDKKSMIASTAITVHYLDLSLNPSGEVTRQIGDALPVSCTISASRNATVVWMKDNIRLRSSPSFSSLHYQDAGNYVCETALQEVEGLKKRESLTLIVEGKPQIKMTKKTDPSGLSKTIICHVEGFPKPAIQWTITGSGSVINQTEESPYINGRYYSKIIISPEENVTLTCTAENQLERTVNSLNVSAISIPEHDEADEISDENREKVNDQAKLIVGIVVGLLLAALVAGVVYWLYMKKSKTASKHVNKDLGNMEENKKLEENNHKTEA [ALCAM] | 0.38 | -0.0197
MESRDHNNPQEGPTSSSGRRAAVEDNHLLIKAVQNEDVDLVQQLLEGGANVNFQEEEGGWTPLHNAVQMSREDIVELLLRHGADPVLRKKNGATPFILAAIAGSVKLLKLFLSKGADVNECDFYGFTAFMEAAVYGKVKALKFLYKRGANVNLRRKTKEDQERLRKGGATALMDAAEKGHVEVLKILLDEMGADVNACDNMGRNALIHALLSSDDSDVEAITHLLLDHGADVNVRGERGKTPLILAVEKKHLGLVQRLLEQEHIEINDTDSDGKTALLLAVELKLKKIAELLCKRGASTDCGDLVMTARRNYDHSLVKVLLSHGAKEDFHPPAEDWKPQSSHWGAALKDLHRIYRPMIGKLKFFIDEKYKIADTSEGGIYLGFYEKQEVAVKTFCEGSPRAQREVSCLQSSRENSHLVTFYGSESHRGHLFVCVTLCEQTLEACLDVHRGEDVENEEDEFARNVLSSIFKAVQELHLSCGYTHQDLQPQNILIDSKKAAHLADFDKSIKWAGDPQEVKRDLEDLGRLVLYVVKKGSISFEDLKAQSNEEVVQLSPDEETKDLIHRLFHPGEHVRDCLSDLLGHPFFWTWESRYRTLRNVGNESDIKTRKSESEILRLLQPGPSEHSKSFDKWTTKINECVMKKMNKFYEKRGNFYQNTVGDLLKFIRNLGEHIDEEKHKKMKLKIGDPSLYFQKTFPDLVIYVYTKLQNTEYRKHFPQTHSPNKPQCDGAGGASGLASPGC [RNASEL] | -0.104 | -0.0377
MESTPSRGLNRVHLQCRNLQEFLGGLSPGVLDRLYGHPATCLAVFRELPSLAKNWVMRMLFLEQPLPQAAVALWVKKEFSKAQEESTGLLSGLRIWHTQLLPGGLQGLILNPIFRQNLRIALLGGGKAWSDDTSQLGPDKHARDVPSLDKYAEERWEVVLHFMVGSPSAAVSQDLAQLLSQAGLMKSTEPGEPPCITSAGFQFLLLDTPAQLWYFMLQYLQTAQSRGMDLVEILSFLFQLSFSTLGKDYSVEGMSDSLLNFLQHLREFGLVFQRKRKSRRYYPTRLAINLSSGVSGAGGTVHQPGFIVVETNYRLYAYTESELQIALIALFSEMLYRFPNMVVAQVTRESVQQAIASGITAQQIIHFLRTRAHPVMLKQTPVLPPTITDQIRLWELERDRLRFTEGVLYNQFLSQVDFELLLAHARELGVLVFENSAKRLMVVTPAGHSDVKRFWKRQKHSS [GTF2H4] | -0.135 | 0.00292
METDESPSPLPCGPAGEAVMESRARPFQALPREQSPPPPLQTSSGAEVMDVGSGGDGQSELPAEDPFNFYGASLLSKGSFSKGRLLIDPNCSGHSPRTARHAPAVRKFSPDLKLLKDVKISVSFTESCRSKDRKVLYTGAERDVRAECGLLLSPVSGDVHACPFGGSVGDGVGIGGESADKKDEENELDQEKRVEYAVLDELEDFTDNLELDEEGAGGFTAKAIVQRDRVDEEALNFPYEDDFDNDVDALLEEGLCAPKKRRTEEKYGGDSDHPSDGETSVQPMMTKIKTVLKSRGRPPTEPLPDGWIMTFHNSGVPVYLHRESRVVTWSRPYFLGTGSIRKHDPPLSSIPCLHYKKMKDNEEREQSSDLTPSGDVSPVKPLSRSAELEFPLDEPDSMGADPGPPDEKDPLGAEAAPGALGQVKAKVEVCKDESVDLEEFRSYLEKRFDFEQVTVKKFRTWAERRQFNREMKRKQAESERPILPANQKLITLSVQDAPTKKEFVINPNGKSEVCILHEYMQRVLKVRPVYNFFECENPSEPFGASVTIDGVTYGSGTASSKKLAKNKAARATLEILIPDFVKQTSEEKPKDSEELEYFNHISIEDSRVYELTSKAGLLSPYQILHECLKRNHGMGDTSIKFEVVPGKNQKSEYVMACGKHTVRGWCKNKRVGKQLASQKILQLLHPHVKNWGSLLRMYGRESSKMVKQETSDKSVIELQQYAKKNKPNLHILSKLQEEMKRLAEEREETRKKPKMSIVASAQPGGEPLCTVDV [DGCR8] | -0.452 | 0.0203
METMRAQRLQPGVGTSGRGTLRALRPGVTGAAAATATPPAGPPPAPPPPAPPPPPLLLSGAPGLPLPPGAAGSPAVLREAVEAVVRSFAKHTQGYGRVNVVEALQEFWQMKQSRGADLKNGALVVYEMVPSNSPPYVCYVTLPGGSCFGSFQFCPTKAEARRSAAKIALMNSVFNEHPSRRITDEFIEKSVSEALASFNGNREEADNPNTGIGAFRFMLESNKGKSMLEFQELMTVFQLLHWNGSLKAMRERQCSRQEVLAHYSHRALDDDIRHQMALDWVSREQSVPGALSRELASTERELDEARLAGKELRFHKEKKDILVLAAGQLGNMHSSNC [LIX1L] | 0.528 | -0.1
